From patent publication US20070105155A1 (Janssen / Centocor, published 2007)

B1: TRPM8-8 fragment (rat TRPM8 M219-S352) (other)
chain: MVSNRDTLIRNCDDEGHFSAQYIMDDFMRDPLYILDNNHTHLLLVDNGCHGHPTVEAKLRNQLEKYISERTSQDSNYGGKIPIVCFAQGGGRETLKAINTSVKSKIPCVVVEGSGQIADVIASLVEVEDVLTSS
modifications: 35S-methionine labelled
notes: In vitro translated from pAGA3; also called TRPM8-8/pAGA3; rTRPM8-8
B2: TRPM8-10 fragment (rat TRPM8 D198-S352) (other)
chain: DNTISRNSEENIVAIGIAAWGMVSNRDTLIRNCDDEGHFSAQYIMDDFMRDPLYILDNNHTHLLLVDNGCHGHPTVEAKLRNQLEKYISERTSQDSNYGGKIPIVCFAQGGGRETLKAINTSVKSKIPCVVVEGSGQIADVIASLVEVEDVLTSS
modifications: 35S-methionine labelled
notes: In vitro translated from pAGA3; The forward primer carries an NcoI site (start ATG before D198); also called TRPM8-10/pAGA3; rTRPM8-10
B3: TRPM8-2 fragment (rat TRPM8 M353-T690) (other)
chain: MVKEKLVRFLPRTVSRLPEEEIESWIKWLKEILESPHLLTVIKMEEAGDEVVSSAISYALYKAFSTNEQDKDNWNGQLKLLLEWNQLDLASDEIFTNDRRWESADLQEVMFTALIKDRPKFVRLFLENGLNLQKFLTNEVLTELFSTHFSTLVYRNLQIAKNSYNDALLTFVWKLVANFRRSFWKEDRSSREDLDVELHDASLTTRHPLQALFIWAILQNKKELSKVIWEQTKGCTLAALGASKLLKTLAKVKNDINAAGESEELANEYETRAVELFTECYSSDEDLAEQLLVYSCEAWGGSNCLELAVEATDQHFIAQPGVQNFLSKQWYGEISRDT
modifications: 35S-methionine labelled
notes: In vitro translated from pAGA3; also called TRPM8-2/pAGA3; rTRPM8-2
B4: TRPM8-9 fragment (rat TRPM8 A172-S352) (other)
chain: AQSKGAWILTGGTHYGLMKYIGEVVRDNTISRNSEENIVAIGIAAWGMVSNRDTLIRNCDDEGHFSAQYIMDDFMRDPLYILDNNHTHLLLVDNGCHGHPTVEAKLRNQLEKYISERTSQDSNYGGKIPIVCFAQGGGRETLKAINTSVKSKIPCVVVEGSGQIADVIASLVEVEDVLTSS
modifications: 35S-methionine labelled
notes: In vitro translated from pAGA3; The forward primer carries an NcoI site (start ATG before A172); also called TRPM8-9/pAGA3; rTRPM8-9
B5: TRPM8-7 fragment (rat TRPM8 V145-S352) (other)
chain: VISVTGGAKNFALKPRMRKIFSRLIYIAQSKGAWILTGGTHYGLMKYIGEVVRDNTISRNSEENIVAIGIAAWGMVSNRDTLIRNCDDEGHFSAQYIMDDFMRDPLYILDNNHTHLLLVDNGCHGHPTVEAKLRNQLEKYISERTSQDSNYGGKIPIVCFAQGGGRETLKAINTSVKSKIPCVVVEGSGQIADVIASLVEVEDVLTSS
modifications: 35S-methionine labelled
notes: In vitro translated from pAGA3; The forward primer carries an NcoI site (start ATG before V145); also called TRPM8-7/pAGA3; rTRPM8-7

How the values were obtained:
GST = molecular target: T1, GST (UniProt P08515 1-218 = GST); assay: GST pull-down control (GST alone on beads), autoradiography, FIG. 2C
T1 construct: Negative control bait; also called glutathione S-transferase control
T1 sequence (P08515 whole entry): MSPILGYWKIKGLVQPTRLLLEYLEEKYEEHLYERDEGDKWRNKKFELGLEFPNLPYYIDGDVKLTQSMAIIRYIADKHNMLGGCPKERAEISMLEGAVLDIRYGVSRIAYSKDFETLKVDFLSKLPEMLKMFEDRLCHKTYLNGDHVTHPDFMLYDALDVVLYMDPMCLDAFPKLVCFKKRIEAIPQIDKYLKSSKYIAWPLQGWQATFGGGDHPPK
Experimental: Agarose-GSH beads (50% (vol./vol.)) bound with about 1 μg of GST or GST-CaM were incubated with 10 μl of ³⁵S-labelled TRPM8 fragment for 30 min at room temperature in a final volume of 200 μl of binding buffer. At the end of the incubation, the beads were washed three times with 1.0 ml of binding buffer and resuspended in 20 μl of 2× laemmli's sample loading buffer. Protein(s) bound to the beads, including the GST-CaM fusion protein, and possibly the ³⁵S-labelled TRPM8 fragment that interact with the GST-CaM fusion protein, were separated by SDS/PAGE followed by autoradiography.

GST-CaM fusion protein = GST-CaM fusion protein (Homo sapiens (Human), UniProt P0DP23 2-149); assay: GST pull-down on agarose-GSH beads, 35S-labelled fragment, SDS/PAGE and autoradiography

Binder	binding result (GST)	binding result (GST-CaM fusion protein)
B1	no binding	no binding
B2	no binding	no binding
B3		no binding
B4	no binding	no binding
B5	no binding	
